Reference: patent US20110065123A1

Target: Rac1 (non-glucosylated) of mouse intestinal epithelial CT26 cells (mouse) (UniProt P63001)
Test: cell-based or functional assay

Row | Substance | glucosylation of Rac1 in CT26 cells, 5 h (Western blot with anti-Rac1 clone 102): complete [ng/mL]
1 | full-length recombinant Clostridium difficile toxin A (rTcdA), His-tagged, expressed in Bacillus megaterium (from UniProt P16154 1-2710) (enzyme) | 40
2 | full-length recombinant Clostridium difficile toxin B (rTcdB), His-tagged, expressed in Bacillus megaterium (from UniProt P18177 2-2366) (enzyme) | 0.4 to 2
3 | native TcdA (nTcdA) purified from culture supernatant of C. difficile strain VPI 10463 (from UniProt P16154 1-2710) (enzyme) | 40
4 | native TcdB (nTcdB) purified from C. difficile strain VPI 10463 (from UniProt P18177 2-2366) (enzyme) | 0.4 to 2
